Results on five molecules are retold here after patent US20250042940A1 (CREIGHTON UNIVERSITY, published 2025).

Non-standard residues stand in square brackets, D forms with d. No end group written: not given here. Pmb = 4-(di-t-butylphosphonomethyl)-3-methylbutyric acid, phosphonate replacement of phospho-Thr; pT = C[C@@H](OP(=O)(O)O)[C@H](N)C(=O)O; pS = N[C@@H](COP(=O)(O)O)C(=O)O

One data set has as its target T1, 14-3-3ε-(His)12 protein (UniProt P62258 1-255).
T1 sequence: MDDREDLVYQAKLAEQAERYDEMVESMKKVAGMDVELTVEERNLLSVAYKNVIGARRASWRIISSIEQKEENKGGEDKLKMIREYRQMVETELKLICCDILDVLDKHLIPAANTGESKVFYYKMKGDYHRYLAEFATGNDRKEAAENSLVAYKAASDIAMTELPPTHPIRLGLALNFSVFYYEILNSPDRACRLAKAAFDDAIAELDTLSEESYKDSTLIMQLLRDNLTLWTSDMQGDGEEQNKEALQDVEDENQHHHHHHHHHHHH
Description: SPR, Biacore 8K, 14-3-3ε-(His)12 on NTA chip, peptide 1 nM-2000 nM, 25° C., mean±SD. As to the method:
For the SPR measurements, binding affinities of the modified pT peptide for 14-3-3ε were measured by SPR using a Biacore 8K Surface plasmon resonance instrument. 100 nM 14-3-3ε-(His)12 protein in 20 mM Tris, 150 mM NaCl, 50 μM EDTA, 0.005% Tween 20, pH 7.4 buffer was immobilized to a NiCl2 activated NTA chip at a flow rate of 5 μL/min for 10 min and then washed with the running buffer for 20 min. Then peptide solutions at a concentration range of 1 nM-2000 nM were injected cycle-wise at the flow rate of 30 μL/min for 1 min, and dissociation time was set for 3 min. All SPR experiments were performed at 25° C. […] At least three replicates were done for each peptide at similar conditions, and binding affinities (KD) are presented as mean±SD.
A general note: SPR reads the build-up and loss of mass on a sensor chip optically.

Data set [1] addresses T2, 14-3-3ε protein (purified, as used in DSF and in the SPR of the Pmb peptide) (UniProt P62258 1-255).
T2 sequence (looked up): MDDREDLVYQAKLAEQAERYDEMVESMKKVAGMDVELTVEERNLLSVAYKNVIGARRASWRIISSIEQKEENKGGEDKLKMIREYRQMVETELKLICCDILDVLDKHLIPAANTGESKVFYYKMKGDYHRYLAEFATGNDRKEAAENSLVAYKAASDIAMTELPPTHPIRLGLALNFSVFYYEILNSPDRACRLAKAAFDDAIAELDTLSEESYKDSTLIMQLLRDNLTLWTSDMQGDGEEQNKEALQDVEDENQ
As to the kind of experiment: differential scanning fluorimetry (DSF), SYPRO-Orange, 2 µM protein and 30 µM peptide. As to the method: The binding of the modified pT peptide to 14-3-3ε was assessed using differential scanning fluorimetry (DSF) and surface plasmon resonance (SPR) measurements. The melting temperature (Tm) of 14-3-3ε-peptide complexes was determined by DSF using the BioRad CFX384 Touch realtime PCR. The protein unfolding was detected with a fluorescent SYPRO-orange dye. The assay was performed in 20 mM Tris, 150 mM NaCl, and 1 mM DTT PH7.4 buffer in a […] with a total volume of 20 μL, containing 2 and 30 μM, final concentrations of protein and peptide, respectively, and 500× dilution of the SYPRO-Orange dye stock. The excitation filter for the dye was 450-490 nm, and the emission filter was 560-580 nm. The temperature was held at 25° C. for 5 min and then increased from 25 to 95° C. at a rate of 0.3° C./ min, and fluorescence was recorded over time. Tm values were determined by plotting the first derivative of the melting curve.
On the technique in general: Differential scanning fluorimetry follows unfolding on heating by fluorescence.

The target of data set [2] is T3, 14-3-3ε (endogenous, in human SCC12B.2 squamous cell carcinoma cells) (human, UniProt P62258 1-255).
T3 sequence (looked up): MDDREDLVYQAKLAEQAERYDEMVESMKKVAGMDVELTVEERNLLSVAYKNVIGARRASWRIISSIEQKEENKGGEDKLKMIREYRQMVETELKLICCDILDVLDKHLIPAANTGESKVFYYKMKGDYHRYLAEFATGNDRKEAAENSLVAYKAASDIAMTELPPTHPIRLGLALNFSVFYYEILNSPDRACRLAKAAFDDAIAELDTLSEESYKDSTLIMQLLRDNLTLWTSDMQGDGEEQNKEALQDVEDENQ
Description: cell-based or functional assay.

Data set [3] addresses T2, 14-3-3ε protein (purified, as used in …). Description: SPR.
Data set [4] shares this target. As to the kind of experiment: differential scanning fluorimetry (DSF), 14-3-3ε alone against 14-3-3ε with peptide.

B1: modified pT peptide, Ac-Arg-Thr-Lys-Ser-Arg-Thr(PO3^2-)-Trp-Ala-Tic-NH2 (peptide)
peptide: RTKSRTWAX
modifications: N-terminal acetyl; phospho-Thr at position 6; Tic residue at position 9; C-terminal amide
notes: Synthetic modification of peptide pT; also called peptide pT modified with a Tic residue
For B1, the affinity in the data set with 14-3-3ε-(His)12 protein, expressed as Kd, was 0.0309 µM. Moreover, the “increase in melting temperature (ΔTm) of 14-3-3ε” value in data set [1] is 4.43 ° C.

Consider WYWK-NH2 [targeting peptide ES1P2, Trp-Tyr-Trp-Lys-NH2], for which, in data set [2], the “IC50, dose response curve in SCC12B.2 cells (Neutral Red Cell Viability assay)” value (“IC50, dose response curve” below) came to 20.6 µM.

B2: peptide pS, Ac-Thr-Gln-Arg-Gln-Asn-Ser-(PO3^2-)-Ala-Pro-Arg-Met-Leu-Ser-Ser-Asn-NH2 (peptide)
peptide: Ac-TQRQN[pS]APRMLSSN-NH2
SMILES: CSCC[C@H](NC(=O)[C@H](CCCNC(=N)N)NC(=O)[C@@H]1CCCN1C(=O)[C@H](C)NC(=O)[C@H](COP(=O)(O)O)NC(=O)[C@H](CC(N)=O)NC(=O)[C@H](CCC(N)=O)NC(=O)[C@H](CCCNC(=N)N)NC(=O)[C@H](CCC(N)=O)NC(=O)[C@@H](NC(C)=O)[C@@H](C)O)C(=O)N[C@@H](CC(C)C)C(=O)N[C@@H](CO)C(=O)N[C@@H](CO)C(=O)N[C@@H](CC(N)=O)C(N)=O
As to B2, the “IC50, dose response curve” value in data set [2] amounted to 29 µM.

For the molecule Ac-RTKSR[pT]WAGEKSKR-NH2 [peptide pT, Ac-Arg-Thr-Lys-Ser-Arg-Thr(PO3^2-)-Trp-Ala-Gly-Glu-Lys-Ser-Lys-Arg-NH2], the “IC50, dose response curve” value in data set [2] stood at 22.6 µM.

B3: first targeting peptide with a Pmb residue, Ac-Arg-Thr-Lys-Ser-Arg-Pmb-Trp-Ala-Gly-NH2 (peptide)
peptide: Ac-RTKSR[Pmb]WAG-NH2
notes: Synthetic analog of the pT peptide (CDC25A Thr507 site) in which the phospho-Thr is replaced by Pmb; also called phosphono-peptide
Consider B3, for which the Kd in data set [3] came to 0.009 µM. Besides, the “increase in melting temperature (ΔTm) of 14-3-3ε” value in data set [4] turned out to be 3.6 ° C.

What is called Kd is a measure of binding affinity in units of concentration.
